Patent US11813311B2, “Treatment and prevention of metabolic diseases” (Singapore Health Services PTE LTD., priority 2019, dated 2023)

Key:
HSCs [1] = test: HSC-to-myofibroblast transformation (ACTA2/Collagen I, Operetta); format: cell-based, human; details: IL-11 5 ng/ml, 24 h
Method: Cells (atrial fibroblasts, HSCs and hepatocytes) were grown and maintained at 37° C. and 5% CO2. The growth medium was renewed every 2-3 days and cells were passaged at 80-90% confluence using standard trypsinization techniques. All the experiments were carried out at low cell passage (P1-P2). Cells were serum-starved for 16 h prior to stimulations. Stimulated cells were compared to unstimulated cells that have been grown for the same duration under the same conditions (serum-free media), but without the stimuli.
HSCs (5300, ScienCell) were cultured in stellate cells complete media (5301, ScienCell) on poly-L-lysine-coated plates (2 μg/cm2, 0403, ScienCell).
The Operetta assay was performed mostly as described previously 11 with minor modifications described here: HSCs or hepatocytes were seeded in 96-well black CellCarrier plates (PerkinElmer) at a density of 5×10^3 cells per well. Following experimental conditions, cells were fixed in 4% paraformaldehyde (PFA, 28908, Thermo Fisher), permeabilized with 0.1% Triton X-100 (Sigma) and non-specific sites were blocked with 0.5% BSA and 0.1% Tween-20 in PBS. Cells were incubated overnight (4° C.) with primary antibodies (1:500), followed by incubation with the appropriate AlexaFluor 488 secondary antibodies (1:1000). Rhodamine Phalloidin staining (1:1000, R415, Thermo Fisher) was performed by overnight incubation (4° C.). […]

HSCs [2] = test: Matrigel invasion assay of HSCs; format: cell-based, human; details: 48 h
Method: The invasive behavior of human HSCs was assayed using 24-well Boyden chamber invasion assays (Cell Biolabs Inc.). Equal numbers of HSCs in serum-free HSC media were seeded in triplicates onto the ECM-coated matrigel and were allowed to invade towards HSC media containing 0.2% FBS. After 48 h of incubation with stimuli, media was aspirated and non-invasive cells were removed using cotton swabs. The cells that invaded towards the bottom chamber were stained with cell staining solution (Cell Biolabs Inc.) and invasive cells from 5 non-overlapping fields/membrane were imaged and counted under 40× magnification. For antibody inhibition experiments, HSCs were pretreated with X203, X209, or IgG control antibodies for 15 m prior to addition of stimuli.

ERK = ERK activation in HSCs (Western blot); format: cell-based, human; details: stimulation with IL-11
Method: Western blots were carried out on total protein extracts from HSCs and liver tissues. Both cells and frozen tissues were homogenized in radioimmunoprecipitation assay (RIPA) buffer containing protease and phosphatase inhibitors (Thermo Scientifics), followed by centrifugation to clear the lysate. Protein concentrations were determined by Bradford assay (Bio-Rad). Equal amount of protein lysates were separated by SDS-PAGE, transferred to PVDF membrane, and subjected to immunoblot analysis for the indicated primary antibodies. Proteins were visualized using the ECL detection system (Pierce) with the appropriate secondary antibodies.

HSCs [3] = test: CCL2 secretion by HSCs (ELISA); format: cell-based, human; details: IL-11 5 ng/ml
Method: FIG. 31A to 31H. Neutralizing anti-IL-11 and anti-IL11 RA antibodies protect HFMCD-fed mice from hepatic fibrosis and inflammation. (A) CCL2 in the supernatants of HSCs (n=4/group) without stimulus (−), with IL-11, or with TGFβ1 in the presence of IgG, X203, or X209 by ELISA; IL-11 (5 ng m1^−1), TGFβ1 (5 ng m1^−1), IgG, X203, and X209 (2 μg m1^−1). (B) Representative gross liver images, (C) Western blots of hepatic ERK activation status, (D) representative (scale bars, 100 μm) and (E) quantification of Masson's Trichrome stained images of livers after 5 weeks of early X203 and X209 treatments. (F) Liver hydroxyproline content (the values of NC and HFMCD 1 week diets are the same as those used in FIG. 25C, the values of IgG 3 and 6 weeks are the same as those used in FIG. 22F, n≥5/group), (G) relative RNA expression levels of fibrosis markers in the livers after 5 weeks treatment of X203 and X209 by qPCR, which confirms data from RNA-seq (the values of NC 6 week for Col1a1, Col1a2, Col3a1, and Acta2 are the same as those shown in FIG. 28D, n≥5/group), and (H) serum ALT levels (the values of NC and HFMCD 1 week are the same as those used in FIG. 25D, the values of IgG 3 and 6 weeks (2 weeks and 5 weeks treatment, respectively) are the same as those used in FIG. 22G, n≥5/group). […]

[4] = test system: primary human hepatocytes; test: Stimulation of primary human hepatocytes with IL11, hyperIL11, hyperIL6; format: cell-based
Method: Human hepatocytes (5200, ScienCell) were grown and maintained in hepatocyte media (5201, ScienCell) supplemented with 2% fetal bovine serum (FBS) and 1% Penicillin-streptomycin.
Primary human hepatocytes (5200, ScienCell) were maintained in hepatocyte medium ([…], ScienCell) supplemented with 2% fetal bovine serum, 1% Penicillin-streptomycin at 37° C. and 5% CO2. Hepatocytes (P2-P3) were serum-starved overnight unless otherwise specified in the methods prior to 24 hours stimulation with different doses of various recombinant proteins as described.
For surface IL11RA, IL6R, and gp130 analysis, primary human hepatocytes and THP-1 cells were stained with IL11RA, IL6R, or gp130 antibody and the corresponding Alexa Fluor 488 secondary antibody. Cell death analysis was performed by staining primary human hepatocytes with Dead Cell Apoptosis Kit with Annexin V FITC and PI (V13242, Thermo Fisher). PI+ve cells were then quantified with the flow cytometer (Fortessa, BD Biosciences) and analyzed with FlowJo version X software (TreeStar).
Alanine Aminotransferase (ALT) activity in the cell culture supernatant and mouse serum was measured using ALT Activity Assay Kit (ab105134, Abcam). Liver Glutathione (GSH) levels were measured using Glutathione Colorimetric Detection Kit (EIAGSHC, Thermo Fisher). Total hydroxyproline content in mouse livers was measured using Quickzyme Total Collagen assay kit (QZBtotco15, Quickzyme Biosciences). The levels of serum and liver triglycerides were measured using Triglyceride Assay Kit (ab65336, Abcam). Mouse serum levels of Aspartate Aminotransferase (AST) and cholesterol were measured using AST Assay Kit (ab105135, Abcam) and Cholesterol Assay Kit (ab65390; Abcam), respectively. All colorimetric assays were performed according to the manufacturer's protocol.
Western blots were carried out on total protein extracts from hepatocytes and liver tissues. Hepatocyte and liver tissue lysates were homogenized in RIPA Lysis and Extraction Buffer (89901, Thermo Scientific) containing protease and phosphatase inhibitors (Roche). Protein lysates were separated by SDS-PAGE and transferred to PVDF membranes. Protein bands were visualized using the ECL detection system (Pierce) with the appropriate secondary antibodies: anti-rabbit HRP or anti-mouse HRP.

PSCs = test: Pancreatic stellate cell (PSC) activation in vitro; format: cell-based; details: treatment with IL-11, 24 hours
Method: FIGS. 48A and 48B. Box plots and images showing activation of pancreatic stellate cells (PSCs) to a αSMA-positive, collagen-expressing fibrogenic phenotype. (A) Quantification of high-content imaging assays for the percentage of ACTA2-positive cells and collagen I intensity/area following in vitro stimulation of PSCs for 24 hours with the indicated factors, in the presence or absence of neutralising anti-IL-11 RA antibody or IgG isotype control antibody. (B) Representative images for high-content imaging analysis of collagen I intensity/area following in vitro stimulation of PSCs for 24 hours with the indicated factors, in the presence of neutralising anti-IL-11 RA antibody or IgG isotype control antibody.

IL-11Rα = IL-11Rα alone, low affinity; cited from earlier work

B1: IL-11: Interleukin 11; recombinant human IL11 (UniProtKB:P20809) used to stimulate cells (protein, listed as Homo sapiens)
chain: MNCVCRLVLVVLSLWPDTAVAPGPPPGPPRVSPDPRAELDSTVLLTRSLLADTRQLAAQLRDKFPADGDHNLDSLPTLAMSAGALGALQLPGVLTRLRADLLSYLRHVQWLRRAGGSSLKTLEPELGTLQARLDRLLRRLQLLMSRLALPQPPPDPPAPPLAPPSSAWGGIRAAHAILGGLHLTLDWAVRGLLLLKTRL
modifications: IL-11 (UniProt P20809)
notes: Interleukin 11; recombinant human IL11 (UniProtKB:P20809) used to stimulate cells
activation of HSCs into ACTA2+ve myofibroblasts (HSCs [1]): activated HSCs to a similar extent as TGFβ1 or PDGF
matrix invasion by HSCs (HSCs [2]): promoted dose-dependent matrix invasion
ERK activation in HSCs (ERK): directly activates ERK
HSC production of CCL2 (HSCs [3]): stimulated HSC production of CCL2
hepatocyte cell death ([4]; IL11 0.625 ng/ml to 20 ng/ml): caused hepatocyte cell death
expression of stress fibres in hepatocytes ([4]; IL-11, dose range): progressive increase in expression of stress fibres
release of ALT from hepatocytes ([4]; physiological levels of IL-11): dose-dependent release of ALT
PSC activation (PSCs): triggered
Kd (IL-11Rα): ~10 nM
